Tests used:
[1] = molecular target: T1, cynomolgus BTLA expressed on HEK-293 cells (cynomolgus, UniProt A0A2K5W7M7 31-289); assay: flow cytometry on HEK 293 cells expressing BTLA (MFI)
T1 construct: whole, on cells; also called Cyno BTLA

[2] = molecular target: T2, human BTLA expressed on HEK-293 cells (human, UniProt Q7Z6A9 31-289); assay: as above
T2 construct: whole, on cells

recombinant human BTLA = recombinant human BTLA (human, UniProt Q7Z6A9 31-157, limits assumed); assay: Bio-Layer Interferometry (Octet), antibody captured by anti-human-Fc (AHC), BTLA in solution, 1:1 fit
[3] = molecular target: T3, cynomolgus BTLA (analyte of Bio-Layer Interferometry) (cynomolgus, UniProt A0A2K5W7M7 31-157); assay: as above
T3 construct: also called Cyno BTLA

human BTLA-human Fc = molecular target: T4, human BTLA-human Fc (human, UniProt Q7Z6A9 31-157); assay: ELISA, inhibition of BTLA-human Fc binding to coated human HVEM-ratIgG2a
T4 construct: not shown: human Fc

human BTLA(ECD)-HIS = molecular target: T5, human BTLA(ECD)-HIS (human, UniProt Q7Z6A9 31-157); assay: ELISA, coated BTLA(ECD)-HIS, chemiluminescence (RLU)
T5 construct: extracellular domain; also called recombinant BTLA; not shown: HIS tag

cynomolgus BTLA(ECD)-HIS = molecular target: T6, cynomolgus BTLA(ECD)-HIS (cynomolgus, UniProt A0A2K5W7M7 31-157); assay: as above
T6 construct: extracellular domain; also called Cyno BTLA; not shown: HIS tag

cynoBTLA-human Fc = molecular target: T7, cynoBTLA-human Fc (cynomolgus, UniProt A0A2K5W7M7 31-157); assay: ELISA, inhibition of cynoBTLA-human Fc binding to coated human HVEM-ratIgG2a
T7 construct: also called cynomolgus BTLA; not shown: human Fc
T7 sequence (A0A2K5W7M7 entry or part of it): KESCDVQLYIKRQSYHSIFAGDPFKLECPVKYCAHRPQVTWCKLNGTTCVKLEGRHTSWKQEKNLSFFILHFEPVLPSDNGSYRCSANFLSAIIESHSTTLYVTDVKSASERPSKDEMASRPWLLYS

T1 sequence (A0A2K5W7M7 entry or part of it): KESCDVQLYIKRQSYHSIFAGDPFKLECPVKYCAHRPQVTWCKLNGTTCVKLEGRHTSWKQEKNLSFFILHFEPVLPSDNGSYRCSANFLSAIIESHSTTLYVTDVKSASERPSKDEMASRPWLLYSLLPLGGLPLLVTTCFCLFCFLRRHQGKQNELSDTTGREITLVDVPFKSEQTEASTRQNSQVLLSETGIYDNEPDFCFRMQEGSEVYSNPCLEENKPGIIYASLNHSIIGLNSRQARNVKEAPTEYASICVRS

Row | Binder | EC50 [1] [nM] | EC50 [2] [nM] | Kd (recombinant human BTLA) [nM] | Kd [3] [nM] | IC50 (human BTLA-human Fc) [nM] | EC50 (human BTLA(ECD)-HIS) [nM] | EC50 (cynomolgus BTLA(ECD)-HIS) [nM] | IC50 (cynoBTLA-human Fc) [nM]
1 | anti-BTLA antibody 16-I20A (antibody, V domains shown, also called 16420A) VH: QVQLQESGPGLVKPSETLSLTCTVSGGSISYYYWSWIRQPPGTGLEWIGYIYYSGSTKYNPSLKRRVTISVDTSKNQFSLKLSSVTAADTAVYYCARIRGDSYGWDFDYWGQGTLVTVSS VL: EIVMTQSPATLSLSPGERATLSCRASQSISNNYLFWYQQKPGQAPRLLIYGASTRATGIPARFSGSGSGTDFTLTISSLQPEDFAVYYCQQDYNFPLTFGGGTKVEIK | 6.9 | 5 | 14.9 | 16.6 | 2.9 | 0.7 | 0.8 | 2.5
2 | anti-BTLA antibody 13-F7A (antibody, V domains shown) VH: EVQLLESGGGLVQPGGSLRLSCAASGFTSSSYGMSWVRQAPGKGLEWVSGISGSGGGTYYADSVKGRFTISRDNSKNTLYLQMNSLRAEDTAVYYCAKGDYYGSGSYPLFDYWGQGTLVTVSS VL: AIQLTQSPSSLSASVGDRVTITCRASQDISSALAWYQQKPGKAPKLLISDASSLESGVPSRFSGSGSGTDFTLTISSLQPEDFATFYCQQFNNYPPTFGPGTKVDIK | 2.6 | 1.5 | 5.4 | 3.9 | 2.5 | 1 | 1 | 1.8
3 | anti-BTLA antibody 16-H16A (antibody, V domains shown) VH: QLQLQESGPGLVKPSETLSLTCTVSGDSISSSGYYWGWIRQPPGKGLEWIGSIYYSGSTHYNPSLKSRVTISVDSSKSQFSLKLSSVTAADTAVYCCARHKVDSSGWPLDYWGQGTLVTVSS VL: EIVMTQSPATLSLSPGERATLSCRASQSISSSCLSWYQQKPGQAPRLLIYDTSTRATGIPARFSGSGSGTDFTLTISSLQPEDFAVYYCQQDYNLPLTFGGGTKVEIK | 4.4 | 4.7 | 13.9 | 4.1 | 3 | 0.9 | 1.9 | 2.3
4 | anti-BTLA antibody 12-I8A (antibody, V domains shown, also called 12-IBA) VH: QVQLVESGGGVVQPGRSLRLSCAASGFTFSNYGMHWVRQAPGKGLEWVAVIWYNGSNKYYADSVKGRFTISRDNSKNTLYLQMNSLRAEDTAVYYCARDDVVRYFDWPLDYWGQGTLVTVSS VL: AIQMTQSPSSLSASVGDRVTITCRASQGIRNDLGWYQQKPGKAPKVLIYAASSLQSGVPSRFSGSGSGTDFTLTISSLQPEDFATYYCLQDYNYPWTFGQGTKVEIK | 5 | 2.9 | 25.2 | 23.2 | 4.4 | 1.4 | 4.2 | 4.6
5 | anti-BTLA antibody 8-M23A (antibody, V domains shown) VH: QVQLQESGPGLVKPSETLSLTCTVSGGSISSYYWSWIRQPPGKGLEWIGYIYYSGSTNYNPSLKSRITISVDTSKNQFSLKLSSVTAADTAVYYCARVILYSSGWSFDYWGQGTLVTVSS VL: EIVMTQSPATLSLSPGERATLSCRASQSVSSSYLSWYQQKPGQAPRLLIYGASTRATGIPARFSGSGSGTDFTLTISSLQPEDFAVYYCQQDYNLPLTFGGGTKVEIK |  |  |  |  |  | 0.8 |  | 
